T1: hiR2-FL-S562E-T7 (human, UniProt Q6PJF5 1-856)
T1 sequence: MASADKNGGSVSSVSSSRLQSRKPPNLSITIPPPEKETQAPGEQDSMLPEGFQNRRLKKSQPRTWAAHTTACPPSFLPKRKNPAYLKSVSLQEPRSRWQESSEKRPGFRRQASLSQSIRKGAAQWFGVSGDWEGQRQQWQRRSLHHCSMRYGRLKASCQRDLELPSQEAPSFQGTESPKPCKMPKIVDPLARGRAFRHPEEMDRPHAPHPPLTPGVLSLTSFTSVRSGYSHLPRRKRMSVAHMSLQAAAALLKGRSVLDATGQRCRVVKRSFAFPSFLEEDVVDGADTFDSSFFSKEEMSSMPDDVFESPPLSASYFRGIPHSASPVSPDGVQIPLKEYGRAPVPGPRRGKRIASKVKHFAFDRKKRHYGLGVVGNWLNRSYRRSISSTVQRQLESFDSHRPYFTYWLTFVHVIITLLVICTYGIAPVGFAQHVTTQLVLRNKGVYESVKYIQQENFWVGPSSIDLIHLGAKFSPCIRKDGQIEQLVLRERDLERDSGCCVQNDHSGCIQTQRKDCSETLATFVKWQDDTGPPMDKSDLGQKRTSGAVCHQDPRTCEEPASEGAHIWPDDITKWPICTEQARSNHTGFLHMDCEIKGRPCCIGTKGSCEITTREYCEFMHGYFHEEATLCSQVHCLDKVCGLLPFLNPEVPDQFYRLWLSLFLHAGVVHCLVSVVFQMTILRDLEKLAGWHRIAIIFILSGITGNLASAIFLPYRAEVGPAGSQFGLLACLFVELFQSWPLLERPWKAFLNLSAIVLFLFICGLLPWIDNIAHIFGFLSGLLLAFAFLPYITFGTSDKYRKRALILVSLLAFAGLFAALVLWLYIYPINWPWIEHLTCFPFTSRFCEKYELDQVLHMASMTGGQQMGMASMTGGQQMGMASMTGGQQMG

T2: hiR2-FL-Q527P-T7 (human, UniProt Q6PJF5 1-856)
T2 sequence: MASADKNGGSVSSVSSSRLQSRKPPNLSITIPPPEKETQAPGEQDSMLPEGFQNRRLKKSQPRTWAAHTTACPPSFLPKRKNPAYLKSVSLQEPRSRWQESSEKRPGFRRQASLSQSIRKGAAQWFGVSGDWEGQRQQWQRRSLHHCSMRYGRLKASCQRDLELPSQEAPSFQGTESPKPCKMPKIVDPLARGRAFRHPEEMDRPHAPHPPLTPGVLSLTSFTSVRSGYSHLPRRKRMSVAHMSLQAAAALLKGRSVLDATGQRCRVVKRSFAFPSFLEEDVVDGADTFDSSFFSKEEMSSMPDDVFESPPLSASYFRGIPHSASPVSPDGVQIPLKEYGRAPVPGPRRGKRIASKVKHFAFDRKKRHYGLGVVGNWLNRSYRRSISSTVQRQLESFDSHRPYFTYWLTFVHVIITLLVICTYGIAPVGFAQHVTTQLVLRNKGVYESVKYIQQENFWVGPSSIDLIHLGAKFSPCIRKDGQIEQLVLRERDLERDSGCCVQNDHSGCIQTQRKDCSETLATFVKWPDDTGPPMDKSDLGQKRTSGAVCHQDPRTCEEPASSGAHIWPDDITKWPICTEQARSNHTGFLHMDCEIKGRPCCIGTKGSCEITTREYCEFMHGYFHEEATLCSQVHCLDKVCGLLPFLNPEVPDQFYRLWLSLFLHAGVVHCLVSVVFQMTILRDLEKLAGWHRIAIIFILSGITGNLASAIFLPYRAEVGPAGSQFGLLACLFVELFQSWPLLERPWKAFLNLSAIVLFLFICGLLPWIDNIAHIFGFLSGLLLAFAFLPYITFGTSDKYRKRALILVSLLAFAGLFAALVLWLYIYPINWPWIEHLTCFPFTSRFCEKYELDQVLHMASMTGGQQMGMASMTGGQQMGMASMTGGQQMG


Experiments:
hiR2-FL-S562E-T7 = target: T1, hiR2-FL-S562E-T7; experiment: FACS, MEF-DKO cells, 3 µg/ml
Text: (§1) In brief, immortalized MEF-DKO-hiR2-FL-G498A-T7, MEF-DKO-hiR2-FL-Q502R-T7, MEF-DKO-hiR2-FL-I509V-T7, MEF-DKO-hiR2-FL-Q512S-T7, MEF-DKO-hiR2-FL-R513E-T7, MEF-DKO-hiR2-FL-K514E-T7, MEF-DKO-hiR2-FL-D515E-T7, MEF-DKO-hiR2-FL-E518S-T7, MEF-DKO-hiR2-FL-T522V-T7, MEF-DKO-hiR2-FL-F523W-T7, MEF-DKO-hiR2-FL-Q527P-T7, MEF-DKO-hiR2-FL-D528I-T7, MEF-DKO-hiR2-FL-D529H-T7, MEF-DKO-hiR2-FL-T530P-T7, MEF-DKO-hiR2-FL-G531S-T7, MEF-DKO-hiR2-FL-P532A-T7, MEF-DKO-hiR2-FL-M534-T7, MEF-DKO-hiR2-FL-D535-T7, MEF-DKO-hiR2-FL-K536-T7, MEF-DKO-hiR2-FL-S537E-T7, MEF-DKO-hiR2-FL-D538L-T7, MEF-DKO-hiR2-FL-L539A-T7, MEF-DKO-hiR2-FL-Q541H-T7, MEF-DKO-hiR2-FL-T544Q-T7, MEF-DKO-hiR2-FL-S545F-T7, MEF-DKO-hiR2-FL-A547S-T7, MEF-DKO-hiR2-FL-T555V-T7, MEF-DKO-hiR2-FL-E557D-T7, MEF-DKO-hiR2-FL-A560S-T7 and MEF-DKO-hiR2-FL-S562E-T7 cells were harvested with 10 mM EDTA in PBS, washed and resuspended in FACS buffer (PBS, 3% FBS, 0.05% sodium azide), and seeded in Nunc U-bottom 96-well plates (Thermo Fisher Scientific, USA) at approximately 3×10⁵ cells per well. To pellet cells and remove supernatants, the plates were centrifuged at 1,500 rpm and 4° C. for 3 minutes. For primary staining, cells were resuspended in 100 μl per well of either FACS buffer alone (controls) or the purified antibodies 3, 5, 16, 22, 34, 42, 43, 44, 48, and 50 of the invention at 3 μg/ml in FACS buffer and incubated on ice for 1 hour. Afterwards, plates were centrifuged at 1,500 rpm and 4° C. for 3 minutes and washed twice with 200 μl per well of FACS buffer. For secondary staining, cells were spun down and resuspended in 100 μl per well of PE-conjugated goat anti-mouse IgG F(ab′)2 detection fragment (Dianova, Germany) diluted 1:100 in FACS buffer. Protected from light, the cell suspensions were incubated on ice for 1 hour. Plates were then centrifuged at 1,500 rpm and 4° C. for 3 minutes and washed three times with 200 μl per well of FACS buffer. Finally, cells were resuspended in 150 μl per well of FACS buffer and analyzed using a BD Accuri™ C6 Plus flow cytometer (Becton Dickinson, Germany).

hiR2-FL-Q527P-T7 = target: T2, hiR2-FL-Q527P-T7; experiment: FACS, MEF-DKO cells, 3 µg/ml
Text: as §1

Binder | loss of binding vs wild type (hiR2-FL-S562E-T7) | loss of binding vs wild type (hiR2-FL-Q527P-T7)
antibody 5 (antibody, V domains shown, mouse IgG, kappa light chain; also called clone #5; purified antibody 5) VH: QVTLKESGPGILQPSQTLSLTCSFSGFSLSTFGMGVGWIRQPSGKGLEWLAHIWWDDEKYYNSALKSRLTISKATSKNQAFLKIANVDTADTATYYCARISNYGSNYWYFNVWGTGTTVTVSS VL: QVVLTQSPALMSASPGEKVTMTCSAGSSVSCMYWYQQKPGSSPRVLIYDTSNLASGVPARFTGSGSGTSYSLTISRMEAEDAASYYCQQWNSYPLTFGAGTKLELK | ≥ 60% | ≥ 60%
antibody 42 (antibody, V domains shown, mouse IgG, kappa light chain; also called clone #42; purified antibody 42) VH: QVTLKESGPGILQPSQTLSLTCSLSGFSLSTFGRGVGWIRQPSGKGLEWLAHIWWDDEKYYNPALKSRLTISKDTSKNQVFLRIANVDTADTATYYCARIQNYGSNYWYFDVWGTGTTVTVSS VL: LIVLTQSPAIMSASPGEKVTMTCGATSRISYMFWYQQKPGSSPRVLIYDTSNLASGVPVRFSGSGSGTSYSLTISRVEAEDVATYYCQQWNSYPLTFGAGTKLELK | ≥ 60% | ≥ 30%
antibody 43 (antibody, V domains shown, mouse IgG, kappa light chain; also called clone #43; purified antibody 43) VH: QVALKESGPGILQPSQTLSLTCSFSGFSLSTFGMGVGWIRQSSGKGLEWLANIWWDDDKYYNPALKSRLTISKDASKNQAFLKIANVDTADTATYYCARIGNYGSNYWYFDVWGTGTTVTVSS VL: QIVLTQSPAIMSASPGERVTMTCSANSRISYMYWYQQKPGSSPRLLIYDTSNLASGVPVRFSGSGSGTSYSLTISRMEAEDAATYNCQQWSSYPLTFGAGTKLELK | ≥ 60% | ≥ 60%
antibody 44 (antibody, V domains shown, mouse IgG, kappa light chain; also called clone #44; purified antibody 44) VH: QVTLKESGPGILQPSQTLSLTCSFSGFSLSTFGMGVGWIRQPSEKGLEWLAHIWWDDDKYYNPALKSRLTISKDTSKNQIFLKITNVDTAETATYYCSRIGNYGSNYWYFDVWGTGTTVTVSS VL: QIVLTQSPAVMSASPGEKVTMTCTASSSVYYMYWYQQTPGSSPRLLIYDTSNLASGVPVRFSGSGSGTSYSLTISRMEAEDAATYYCQQWNTYPLTFGAGTKLELK | ≥ 30% | ≥ 60%
antibody 22 (antibody, V domains shown, mouse IgG, kappa light chain; also called clone #22; purified antibody 22) VH: QVTLKESGPGILQPSQTLSLTCSFSGFSLSTFGMGVGWIRQPSGKGLEWLAHIWWDDEKYYNSALKSRLTISKATSKNQVFLKIANVDTADTATYYCARISNYGSNYWYFNVWGTGTTVTVSS VL: QVVLTQSPALMSASPGEKVTMTCSAGSSVSYMYWYQQKPGSSPRVLIYDTSNLASGVPARFTGSGSGTSYSLTISRMEAEDAATYYCQQWNSYPLTFGAGTKLELK | ≥ 30% | 
antibody 48 (antibody, V domains shown, mouse IgG, kappa light chain; also called clone #48; purified antibody 48) VH: QVQLQQSGTELVRPGTSVKVSCKASGYAFTNYLIEWVKQRPGQGLEWIGVINPGSGFTKYNEKFKGKATLTADKSSSTVYMHLSSLTSEDSAVYFCARGLYRAMDYWGQGTSVTVSS VL: DIQMTQSPASQSASLGESVTITCLASQTIATWLAWYQQKPGKSPQLLIYGATTLADGVPSRFSGGGSGTKFSFKISSLQAEDFVSYYCQQLYSTPYTFGGGTKLEIK | ≥ 30% | ≥ 30%
antibody 50 (antibody, V domains shown, mouse IgG, kappa light chain; also called clone #50; purified antibody 50) VH: QVQLQQSGAELVRPGASVKVSCKASGYAFSNYLIEWVKQRPGQGLEWIGVINPGSGFTKYNEKFKGKATLTADKSSSTAYMQLSSLTSEDSAVYFCARGLYRAMDYWGQGTSVTVSS VL: DIQMTQSPASQSASLGESVTITCLASQTIGTWLAWYQQKPGKSPQLLIYAAASLADGVPSRFSGGGSGTKFSFKISSLQAEDFVNYYCQQIYSTPYTFGGGTKLEIK | ≥ 30% | ≥ 30%
antibody 3 (antibody, V domains shown, mouse IgG, kappa light chain; also called clone #3; purified antibody 3) VH: QVTLKESGPGILQPSQTLSLTCSFSGFSLTTFAMGIGWVRQPSGKGLEWLAHIWWDGEKYNNPVLKSRLTISKDTSKNQVFLRIANVDTPDTATYYCARISSIYYIIDNWGQGTSVTVSS VL: DIVLTQSPATLSVTPGHSVSLSCRASQSISNNLHWYQKKSHESPRLLIKYVSQSISGIPSRFSGSGSGTDFTLSINSVETEDFGMYFCQQSYNWPLTFGAGTKLELK | ≥ 30% | ≥ 30%
antibody 34 (antibody, V domains shown, mouse IgG, kappa light chain; also called clone #34; purified antibody 34) VH: QVTLKESGPGILQPSQTLSLTCSFSGFSLSTFSLGVGWIRQSSGKGLEWLAHIWWDDEKYYNPALKSRLTISKDTSKNQVFLKIANVDAADTATYYCARAYYSKSYYALDYWGQGTSVTVSS VL: DIQMTQSPSSLSASLGERVSLTCRASQEISGYLSWLQQKPDGTIKRLIYAASTLDSGVPKRFSGSRSGSDYSLAISSLESEDFADYYCLQYANFPFTFGSGTKLEIK | ≥ 60% | 

— patent publication US20240287172A1 (SCIRHOM, published 2024)
